Consider 23 sequences from the DeepSol protein solubility set.

The data set in a line: soluble on expression in E. coli; label from the status in PepcDB or PDB records.
Turning to “QSIVVDMREFRSELPSLIHRRGIDIEPVTLEVGDYILTPEMCVERKSISDLIGSLNNGRLYSQCISMSRYYKRPVLLIEFD”, the “soluble on expression in E. coli” value is on record as “not soluble”.
“MGSDKIHHHHHHMFSAMLEVNPIPEQFDAYLGMAKMLRPELEKIEGFIDNERYESLTRPGWLLSLSNWRDEKSLIRWRTTTKHHKVQQAARDRIFADYRLRIGEVDTDTHLPIGEALHQQRLDVTEAGEGKAVTLLDADRSRYWLNGASAEAVAKSLGLDAQARGLLAWDVFKALLSPEEVIVVLTWRDEAAALAFGKNARLPGDVRLRSIRIVREYGMFDRREAPQYFEEVPRKA”: the “soluble on expression in E. coli” value was “not soluble”.
As to “MGSDKIHHHHHHMVAIEKGGARLVFAPEVGGAVAAFTVDGREVLRPTAPQVDDALLTANFPLVSFCNRIPNGRFEWRGTSVTLPPNLEGHPHPLHGQGWRMPWAVEAIETDRALLVFEHPAGDWPWAYRAEQAFTLSETGFRVTLTVINTGEEDMPAGLGFHPYFPARPGERLAAQNDGVWLIDEDVLPTVRHAGRWGPDWAVGAPVAGHALIDHCYTGWNQRAVLSAPGRPDTVITASPDCAWLHVYAPPGEGYYCVEPCASRPNPFGEGETGMVTLCPGERRSIWMEIATG”, the “soluble on expression in E. coli” value is reported as “not soluble”.
Turning to “MSLQEWTKEDSLRLRKLLDSDQELNLNQDAVRQIDFGSAVGTPRMSVEKKWMLPDESLPEALPKPKVVLSLMPYKANTPYNWDPVFQKKIRMDKNTWRGDPHYEMRHQRSYSNWAHNPMAGGVRKSLEEIRASGVRFRQLSERANGMMVNSVVMDSPIPLFGGSGVYINGGTIGGLDLMAVFTKNFWDKKGKERRERTLEVLRTYGDSTTVLINRPIEQIAREGHHHHHH”, the “soluble on expression in E. coli” value is on record as “soluble”.
Under “MTEFTPFFDGSNQLNYLKFVILRFHGVSKRKICKMYNFAYFRILEVCEMAKKNDYRFTYKDYKFLKQYGVSNTFICKMYHISIEDLEFFEVMNR” stands “not soluble”.
On to “MGSDKIHHHHHHMDRYRGNAEAVKNLVRGHAVHRDVYVDKEVFDLEMEQLFPNSWVYVGHESQLKDPGDYITSKIGHQPILISRHKNGTIHVLHNRCPHKGVKIASEPCGNTGKFFRCPYHAWSFKTDGSLLAIPLKKGYEGTGFDNDRAKDGLPRVENVHIYRGFIFARLSDTGLSFEDYFGDSLSTIDNMVDRSPKGEVEIIAAPIRYMHTCNWKMLVDNQTDTCHPMVAHESSAGTAVSVWEREKHRFTETPMAVQLYAPFMSPYEFYESAGIRVWPNGHGHSGVSGSIHQDYDDVDGYLEMMVEAYGETRAREILGDIRHNTLYFPNVMVKGPVGILRNFIPVAVDRTLVESWAFRLVGAPDKIYERALMYNRFINAPTSIVGHDDLEMYERAQEGLLSDANEWINLRRLYEEGEPEDVTEVVNGTSERQMRNTFYAWRKFMVQGMEQKQEVSA”, for which the “soluble on expression in E. coli” value is recorded as “not soluble”.
For the sequence “METPKLSVEAIEKGTVIDHIPAGRGLTILRQFKLLHYGNAVTVGFNLPSKTQGSKDIIKIKGVCLDDKAADRLALFAPEAVVNTIDNFKVVQKRHLNLPDEIAEVFRCPNTNCAGHGEPVKSRFYVKKHNGQTRLKCHYCEKTYSRDSVAEA”, the “soluble on expression in E. coli” value was “not soluble”.
On to “MGKFISGSIVAILTDQIEESTACNLKHLLRNDPLFKPLIQTNVHKKRSAYEIIGVHTCEENEPCRIGRTRSCLCQEDFVCDKTPANKNVHLCTKLGYFRLFEANKK”, for which the “soluble on expression in E. coli” value is recorded as “not soluble”.
“MPHSYPALSAEQKKELSDIALRIVAPGKGILAADESVGSMAKRLSQIGVENTEENRRLYRQVLFSADDRVKKCIGGVIFFHETLYQKDDNGVPFVRTIQDKGIVVGIKVDKGVVPLAGTDGETTTQGLDGLSERCAQYKKDGADFAKWRCVLKISERTPSALAILENANVLARYASICQQNGIVPIVEPEILPDGDHDLKRCQYVTEKVLAAVYKALSDHHVYLEGTLLKPNMVTPGHACPIKYTPEEIAMATVTALRRTVPPAVPGVTFLSGGQSEEEASFNLNAINRCPLPRPWALTFSYGRALQASALNAWRGQRDNAGAATEEFIKRAEVNGLAAQGKYEGSGEDGGAAAQSLYIANHAYL”: the “soluble on expression in E. coli” value is recorded as “soluble”.
Under “KGKCVIFIIDGLGDRPNEKGLTPLKEAKTPTMDKIAKEGICGLMNAIDIGIRPGSDTAHLAILGYNPYEVYTGRGPLEAFGVGLDLKEGDIAFRCNFATVDENFVVLDRRAGRISPEEAEELEKEIDGLEIDGVKVIFKSSKGYRGALVLRGEGLSCRVSDGDPHEEGVKVSEIKPLDDSEEAKRTAEILNKLLKIVYEKLNNHPINEERRKKGLPPANIILPRGAGVVPKIEKFSEKYNMKGACICGTGLIKGMAKMIGLDVIEVEGATGTPKTNFMGKAKALVEALKEYDFVLVNVKGADEASHDGNYELKKEVLEKIDEMLAYVFEHINKDEVYFVLTGDHSTPIEMKDHSADPIPIVIWGKSVRVDDVTEFNEFACAKGALHWIKGEHVMKILLDLTG” stands “not soluble”; under “MGSDKIHHHHHHMEVIRLDKVSLWRRTQEEFSYDLKKTLLSLIEGKYRKPAKKLVLDNVDLVVEKGDKIGIIGANGSGKSTLLKIISGILQPTTGTVRVRGQVAPLIELGAGFDAEISVMDNILLYGVLLGFSRAEMKERANSILEFAELQDYALVPVKGLSSGMVARLGFSIATDVQPNILILDEVLSVGDENFKNKCKQRIDNFWNGDATVLVVSHDLQFVKQYCNQLVWLSHGKIEFIGDAGEAIQNYLSTLTST”, “not soluble”; under “MSLNSLKHPKVRDTRDMWDIREELTSEQKKQEKLLAEINKYDKFVNSYSQTKEMTKETALNNTLQSLKKTAGMTDITGSGIVITISPLFSESLTGEPIENPPPDLLKKLINELNSYGAEHISINERRVVNHTVIRDINGTTKIDGYALDDYPLTVKVLAKDPDMLHSRVKGSGLEDLFASENLALKAGKSESKLTLKAYDRPLDVQQLKLLKDEGHHHHHH”, “soluble”.
Under “MRIEDKLYLNRYRTDEENPHLKIKDESICAEKCSDRPCVSCCPADVYEWTESGMEVKFEGCLECGTCRIVCPFGNIEWNYPRGNYGVLYKFG” stands “soluble”; under “ANGFHYTVGFNLSDYQSEVTKFDNESKELGNWYVGQKQGEIWGYETYGLFQSEQEIAGAANQDKVSGGIKLMPGDIRFVDRNNDGVIDWGDNTVDNPGDKKIIGNSTPRYHYGINLGADWKGFDLGIFFQGVGKRDLYLPGTSFRSHYGSEWQVPSAYNNDYWTEENTGAYFPRARFNGGSAINQAQTRYMVDASYCRLKSLSIGYTLPKVLTQKASIEKIRIYFTGENLFTISDTPDGLDPELDNPYTYPMQRSLSVGLSLTF”, “not soluble”; under “MKISIVIVTYNRIPALCELLESISRQTLMPYEIIIVNDAGESVVPVKALYPELPIAVINLEKNSGHVAARNAGVKEASGDCIMLCDDDDFFTPGHIEKMAKEIETADFVHSDAEIVSFEEKNGTRYPVSRKLFAYTADYEDMRVFSTYVPSGSMYRRFLHDEIGYFDADVHNYWDWDFYLRAAKDYRVKRVPCASVIYAFSDAGDNQSADLGAKRKQYLDRLSEKHGLGELPTKNFAVLLEEPEMKRREAKSEMVWDGEPVYSRLHRSLEHHHHHH”, “not soluble”.
As for “MSLKMKPPVEKNEYYDVTFEDLTHEGAGVAKVQGFPIFVPNALPEEKAQIKVTRVKKGFAFGRLIELKEESPHRTDAPCPIYKQCGGCQLQHMTYEGQLLFKQKQVKDVLERIGKLDLSKVTVHPTLGMEDPWNYRNKAQVPVGEREGGLVAGFYQQRSHDIIDMSACLIQQSKNDEAVQAVKDICANYGVKAYNEERHKGWLRHIMVRYGVVTGEMMIVFITRTSDFPHKAKIIEDITAQFPHVKSIVQNINPNKTNVIFGNETNVIWGEEYIYDLIGDVKFAISARSFYQVNPEQTKVLYDKALEYAELQGEETVIDAYCGIGTISLFLAKQAKKVYGVEIVPEAIEDAKRNAELNGNTNAEFAVGEAETVIPKWYEEGITADTLVVDPPRKGCDEALLRTIVEMKPKRVVYVSCNPGTLARDLRVLEDGGYVTREVQPVDMFPHTNHVECCVLIKLKEEGHHHHHH”, the “soluble on expression in E. coli” value is listed as “soluble”.
On to “MSSKEQKTPEGQAPEEIIMDQHEEIEAVEPEASAEQVDPRDEKVANLEAQLAEAQTRERDGILRVKAEMENLRRRTELDIEKAHKFALEKFINELLPVIDSLDRALEVADKANPDMSAMVEDIELTLKSMLDVVRKFGVEVIAETNVPLDPNVHQAIAMVESDDVAPGNVLGIMQKGYTLNGRTIRAAMVTVAKAKA”, for which the “soluble on expression in E. coli” value is reported as “soluble”.
Under “MGSDKIHHHHHHMLRECDYSQALLEQVNQAISDKTPLVIQGSNSKAFLGRPVTGQTLDVRCHRGIVNYDPTELVITARVGTPLVTIEAALESAGQMLPCEPPHYGEEATWGGMVACGLAGPRRPWSGSVRDFVLGTRIITGAGKHLRFGGEVMKNVAGYDLSRLMVGSYGCLGVLTEISMKVLPRPRASLSLRREISLQEAMSEIAEWQLQPLPISGLCYFDNALWIRLEGGEGSVKAARELLGGEEVAGQFWQQLREQQLPFFSLPGTLWRISLPSDAPMMDLPGEQLIDWGGALRWLKSTAEDNQIHRIARNAGGHATRFSAGDGGFAPLSAPLFRYHQQLKQQLDPCGVFNPGRMYAEL” stands “not soluble”; under “MPAYPREGKIIQIHSYKHNGTIHRIWQETVVLKGTPSYVIGGNNKTLVMEADGRTWVTREPAICFFHAKHWFNIIAMIREDGVYYYCNLSSPFVWDEEALKYIDYDLDIKVFPDMTYMLLDEDEYERHRREMHYPDVIDRILKNNVQKLIGWIKERKGPFAPEFIDKWYGVFQAYQT”, “not soluble”; under “VIGYEYPDWIWGWTNTVTYKNFTLSFTLDGRVGGMAHSKTNQAMWNSGAHIDSDNQWRYDEVVNKKTNFVGSGVKVVSGSVDYDSNGKIIHDNRVFAPNDVQVSYESYMKSTNPYIGTVTRQNVFDETFFKLRDLSLSYQMPKSVCDKLHMKGLTLAFVGQNLFVWTKEFRFTDPDSDSDNLSSPSTRYLGFNVKLDF”, “not soluble”.
Under “MSIYKIPLPLNILEAARERITWTLNTLPRVCVSFSGGKDSGLMLHLTAELARQMGKKICVLFIDWEAQFSCTINYVQSLRELYTDVIEEFYWVALPLTTQNSLSQYQPEWQCWEPDVEWVRQPPQDAITDPDFFCFYQPGMTFEQFVREFAEWFSQKRPAAMMIGIRADESYNRFVAIASLNKQRFADDKPWTTAAPGGHSWYIYPIYDWKVADIWTWYANHQSLCNPLYNLMYQAGVPLRHMRICEPFGPEQRQGLWLYHVIEPDRWAAMCARVSGVKSGGIYAGHDNHFYGHRKILKPEHLDWQEYALLLLNSMPEKTAEHYRNKIAIYLHWYQKKGIEVPQTQQGDIGAKDIPSWRRICKVLLNNDYWCRALSFSPTKSKNYQRYNERIKGKRQEWGILCNND” stands “not soluble”; under “MNEDVIVDRQYSHGAALTIRAFWAADEESRAAIAKASGLRWVPSSADQPGEQHWPYTEIFQRQMQMELGPDTETRLRIHQPSQLWVRAPSLGEGWLAVPLYPHPLRGQRI”, “not soluble”; under “MGLLIEGRWHDQWYESGKDGAFQREQAQRRNWVTADGRPGPSGEGGFAAEAGRYHLYVSLACPWAHRTLILRKLKGLEQLIDVSVVSWLMRENGWTFDSAHGSSGDALDHFDFMHQRYTADTADYTGRVTVPVLWDKQQQRIVSNESAEIIRMFNSAFDGLTGNGLDFYPQPLRARIDELNARIYPALNNGVYRAGFATSQQAYETAFDDVFAELDALEALLDKQRYLAGEYLTEADVRLFTTLIRFDAVYHGHFKCNLRRIADYPNLSNWLRELYQWPGIAETVDFAHIKGHYYASHTTINPTGIVPKGPLQDFSRAHDRQRLSGQGVWCRGLEHHHHHH”, “not soluble”.
